# Test results taken from US20210371867A1 (SYSMEX, published 2021).
# T1: human CD80/B7-1 protein (His tag) (human, UniProt P33681 35-242)
# T1 construct: Recombinant His-tagged protein used as the antigen solution; also called antigen
# T1 sequence (looked up): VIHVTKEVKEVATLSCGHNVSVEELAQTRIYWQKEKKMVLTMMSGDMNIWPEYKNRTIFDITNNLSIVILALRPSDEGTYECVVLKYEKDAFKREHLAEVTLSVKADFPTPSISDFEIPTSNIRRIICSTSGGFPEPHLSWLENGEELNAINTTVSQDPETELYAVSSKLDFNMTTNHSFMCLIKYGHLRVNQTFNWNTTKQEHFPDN
# Experiments:
# [1] = biological target: human IgG antibody (human); assay: sandwich chemiluminescence immunoassay on magnetic particles (HISCL-800); capture biotin-labeled mouse anti-human IgG semi-IgG; binder as detection antibody, 0.051 U/mL
# [2] = biological target: human IgG antibody (human); assay: sandwich chemiluminescence immunoassay (HISCL-800); detection reagent stored at 40° C. for 1 week
# [3] = biological target: human IgG antibody (human); assay: sandwich chemiluminescence immunoassay (HISCL-800); PC counts over NC counts, R3 reagent stored at 4° C.
# [4] = biological target: human IgG antibody (human); assay: sandwich chemiluminescence immunoassay on magnetic particles (HISCL-800); capture biotin-labeled mouse anti-human IgG semi-IgG; binder as detection antibody, 0.052 U/mL
# [5] = biological target: T1, human CD80/B7-1 protein (His tag); assay: sandwich chemiluminescence ELISA; capture rabbit anti-CD80 IgG on plate, antigen 0.005-20 ng/mL, binder as detection antibody at 200 ng/mL
# Experimental: Rabbit anti-CD80 antibody (IgG) was diluted with PBS to 1 μg/mL. The resulting antibody solution was added to a 96-well black plate at 100 μL/well and allowed to stand overnight at 4° C. to immobilize the antibody in the wells. After removing the antibody solution from the plate, Buffer I′ (100 mM HEPES, 1% BSA, 0.05% ProClin (trademark), 1 mM MgCl₂, 0.1 mM ZnCl₂, pH 8.0) was added at 300 μL/well and allowed to stand overnight at 4° C. for blocking. After removing the solution from the plate, a human CD80/B7-1 protein (His tag) solution (0.005, 0.020, 0.078, 0.313, 1.25, 5.0 or 20 ng/mL) was added as an antigen solution at 100 μL/well. The plate was shaken at room temperature at 500 rpm for 1 hour to perform an antigen-antibody reaction. The plate was washed three times with a HISCL washing solution (Sysmex Corporation), and then each ALP fusion antibody (200 ng/mL) of Example 1 diluted with Buffer I′ was added at 100 μL/well. The plate was shaken at room temperature at 500 rpm for 1 hour to perform an antigen-antibody reaction. After washing the plate with a HISCL washing solution three times, a HISCL R5 reagent (Sysmex Corporation) as a solution of a chemiluminescent substrate of ALP was added at 100 μL/well, and luminescence intensity was immediately measured with FLUOstar OPTIMA (BMG LABTECH).
# [6] = biological target: human IgG antibody (human); assay: sandwich chemiluminescence immunoassay on magnetic particles (HISCL-800); capture biotin-labeled mouse anti-human IgG semi-IgG; binder as detection antibody, 0.055 U/mL
"Counts (PC, R3 reagent stored at 4° C.) [1]","Counts (PC, R3 reagent stored at 40° C., 1 week) [2]",S/N [3],"Counts (PC, R3 reagent stored at 4° C.) [4]",binding result [5],"Counts (PC, R3 reagent stored at 4° C.) [6]",Binder
,,,,binds,,"ALP fusion antibody of Example 1 (GS3 linker): Fab of rabbit anti-CD80 antibody, Fd-GS3-BIAPII (Fab, Fab-enzyme fusion, dimer through the ALP subunits) heavy: QSVEESGGRLVTPGTPLTLTCTASGFSLSNNAVSWVRQAPGEGLEWIGTISSNDNTYYATWAKGRFTISKTSTTVDLKITSPTTEDTATYFCAIYYYGYGYVFNLWGPGTLVTVSSGQPKAPSVFPLAPCCGDTPSSTVTLGCLVKGYLPEPVTVTWNSGTLTNGVRTFPSVRQSSGLYSLSSVVSVTSSSQPVTCNVAHPATNTKVDKTVAPSTCSKPTGGGGSGGGGSGGGGSLIPAEEENPAFWNRQAAQALDVAKKLQPIQTAAKNVILFLGDGMGVPTVTATRILKGQMNGKLGPETPLAMDQFPYVALSKTYNVDRQVPDSAGTATAYLCGVKGNYRTIGVSAAARYNQCNTTRGNEVTSVINRAKKAGKAVGVVTTTRVQHASPAGAYAHTVNRNWYSDADLPADAQKNGCQDIAAQLVYNMDIDVILGGGRMYMFPEGTPDPEYPDDASVNGVRKDKQNLVQEWQAKHQGAQYVWNRTALLQAADDSSVTHLMGLFEPADMKYNVQQDHTKDPTLAEMTEAALQVLSRNPRGFYLFVEGGRIDHGHHDGKAYMALTEAIMFDNAIAKANELTSELDTLILVTADHSHVFSFGGYTLRGTSIFGLAPGKALDSKSYTSILYGNGPGYALGGGSRPDVNGSTSEEPSYRQQAAVPLASETHGGEDVAVFARGPQAHLVHGVQEETFVAHIMAFAGCVEPYTDCNLPAPA light: ELVMTQTPASVSEPVGGTVTINCQASEDIYSSLAWYQQKPGQRPKLLMYYASTLASGVPSRFKGSGSGTEFTLTISDLECADAATYYCQSYYLSSSSRYGNAFGGGTEVVVKGDPVAPTVLIFPPAADQVATGTVTIVCVANKYFPDVTVTWEVDGTTQTTGIENSKTPQNSADCTYNLSSTLTLTSTQYNSHKEYTCKVTQGTTSVVQSFIG"
,,,,binds,,"ALP fusion antibody of Example 1 (EK3 linker): Fab of rabbit anti-CD80 antibody, Fd-EK3-BIAPII (Fab, Fab-enzyme fusion, dimer through the ALP subunits) heavy: QSVEESGGRLVTPGTPLTLTCTASGFSLSNNAVSWVRQAPGEGLEWIGTISSNDNTYYATWAKGRFTISKTSTTVDLKITSPTTEDTATYFCAIYYYGYGYVFNLWGPGTLVTVSSGQPKAPSVFPLAPCCGDTPSSTVTLGCLVKGYLPEPVTVTWNSGTLTNGVRTFPSVRQSSGLYSLSSVVSVTSSSQPVTCNVAHPATNTKVDKTVAPSTCSKPTEAAAKEAAAKEAAAKLIPAEEENPAFWNRQAAQALDVAKKLQPIQTAAKNVILFLGDGMGVPTVTATRILKGQMNGKLGPETPLAMDQFPYVALSKTYNVDRQVPDSAGTATAYLCGVKGNYRTIGVSAAARYNQCNTTRGNEVTSVINRAKKAGKAVGVVTTTRVQHASPAGAYAHTVNRNWYSDADLPADAQKNGCQDIAAQLVYNMDIDVILGGGRMYMFPEGTPDPEYPDDASVNGVRKDKQNLVQEWQAKHQGAQYVWNRTALLQAADDSSVTHLMGLFEPADMKYNVQQDHTKDPTLAEMTEAALQVLSRNPRGFYLFVEGGRIDHGHHDGKAYMALTEAIMFDNAIAKANELTSELDTLILVTADHSHVFSFGGYTLRGTSIFGLAPGKALDSKSYTSILYGNGPGYALGGGSRPDVNGSTSEEPSYRQQAAVPLASETHGGEDVAVFARGPQAHLVHGVQEETFVAHIMAFAGCVEPYTDCNLPAPA light: ELVMTQTPASVSEPVGGTVTINCQASEDIYSSLAWYQQKPGQRPKLLMYYASTLASGVPSRFKGSGSGTEFTLTISDLECADAATYYCQSYYLSSSSRYGNAFGGGTEVVVKGDPVAPTVLIFPPAADQVATGTVTIVCVANKYFPDVTVTWEVDGTTQTTGIENSKTPQNSADCTYNLSSTLTLTSTQYNSHKEYTCKVTQGTTSVVQSFIG"
364000 counts,331000 counts,737,,,,"ALP fusion antibody of Example 2 (GS3): Fab of mouse anti-human IgG antibody, Fd-GS3-BIAPII (Fab, part only; not given: Fd and light chain of anti-IgG Fab, part only) heavy, part: GGGGSGGGGSGGGGSLIPAEEENPAFWNRQAAQALDVAKKLQPIQTAAKNVILFLGDGMGVPTVTATRILKGQMNGKLGPETPLAMDQFPYVALSKTYNVDRQVPDSAGTATAYLCGVKGNYRTIGVSAAARYNQCNTTRGNEVTSVINRAKKAGKAVGVVTTTRVQHASPAGAYAHTVNRNWYSDADLPADAQKNGCQDIAAQLVYNMDIDVILGGGRMYMFPEGTPDPEYPDDASVNGVRKDKQNLVQEWQAKHQGAQYVWNRTALLQAADDSSVTHLMGLFEPADMKYNVQQDHTKDPTLAEMTEAALQVLSRNPRGFYLFVEGGRIDHGHHDGKAYMALTEAIMFDNAIAKANELTSELDTLILVTADHSHVFSFGGYTLRGTSIFGLAPGKALDSKSYTSILYGNGPGYALGGGSRPDVNGSTSEEPSYRQQAAVPLASETHGGEDVAVFARGPQAHLVHGVQEETFVAHIMAFAGCVEPYTDCNLPAPA"

# The remaining lines, values behind:
Binder,"Counts (PC, R3 reagent stored at 4° C.) [1]","Counts (PC, R3 reagent stored at 40° C., 1 week) [2]",S/N [3],"Counts (PC, R3 reagent stored at 4° C.) [4]",binding result [5],"Counts (PC, R3 reagent stored at 4° C.) [6]"
"ALP fusion antibody of Example 2 (GS1): Fab of mouse anti-human IgG antibody, Fd-GS1-BIAPII (Fab, part only; not given: Fd and light chain of anti-IgG Fab, part only) heavy, part: GGGGSLIPAEEENPAFWNRQAAQALDVAKKLQPIQTAAKNVILFLGDGMGVPTVTATRILKGQMNGKLGPETPLAMDQFPYVALSKTYNVDRQVPDSAGTATAYLCGVKGNYRTIGVSAAARYNQCNTTRGNEVTSVINRAKKAGKAVGVVTTTRVQHASPAGAYAHTVNRNWYSDADLPADAQKNGCQDIAAQLVYNMDIDVILGGGRMYMFPEGTPDPEYPDDASVNGVRKDKQNLVQEWQAKHQGAQYVWNRTALLQAADDSSVTHLMGLFEPADMKYNVQQDHTKDPTLAEMTEAALQVLSRNPRGFYLFVEGGRIDHGHHDGKAYMALTEAIMFDNAIAKANELTSELDTLILVTADHSHVFSFGGYTLRGTSIFGLAPGKALDSKSYTSILYGNGPGYALGGGSRPDVNGSTSEEPSYRQQAAVPLASETHGGEDVAVFARGPQAHLVHGVQEETFVAHIMAFAGCVEPYTDCNLPAPA",359000 counts,320000 counts,737,,,
"ALP fusion antibody of Example 2 (EK1): Fab of mouse anti-human IgG antibody, Fd-EK1-BIAPII (Fab, part only; not given: Fd and light chain of anti-IgG Fab, part only) heavy, part: EAAAKLIPAEEENPAFWNRQAAQALDVAKKLQPIQTAAKNVILFLGDGMGVPTVTATRILKGQMNGKLGPETPLAMDQFPYVALSKTYNVDRQVPDSAGTATAYLCGVKGNYRTIGVSAAARYNQCNTTRGNEVTSVINRAKKAGKAVGVVTTTRVQHASPAGAYAHTVNRNWYSDADLPADAQKNGCQDIAAQLVYNMDIDVILGGGRMYMFPEGTPDPEYPDDASVNGVRKDKQNLVQEWQAKHQGAQYVWNRTALLQAADDSSVTHLMGLFEPADMKYNVQQDHTKDPTLAEMTEAALQVLSRNPRGFYLFVEGGRIDHGHHDGKAYMALTEAIMFDNAIAKANELTSELDTLILVTADHSHVFSFGGYTLRGTSIFGLAPGKALDSKSYTSILYGNGPGYALGGGSRPDVNGSTSEEPSYRQQAAVPLASETHGGEDVAVFARGPQAHLVHGVQEETFVAHIMAFAGCVEPYTDCNLPAPA",,421000 counts,927,463000 counts,,
"ALP fusion antibody of Example 2 (EK3): Fab of mouse anti-human IgG antibody, Fd-EK3-BIAPII (Fab, part only; not given: Fd and light chain of anti-IgG Fab, part only) heavy, part: EAAAKEAAAKEAAAKLIPAEEENPAFWNRQAAQALDVAKKLQPIQTAAKNVILFLGDGMGVPTVTATRILKGQMNGKLGPETPLAMDQFPYVALSKTYNVDRQVPDSAGTATAYLCGVKGNYRTIGVSAAARYNQCNTTRGNEVTSVINRAKKAGKAVGVVTTTRVQHASPAGAYAHTVNRNWYSDADLPADAQKNGCQDIAAQLVYNMDIDVILGGGRMYMFPEGTPDPEYPDDASVNGVRKDKQNLVQEWQAKHQGAQYVWNRTALLQAADDSSVTHLMGLFEPADMKYNVQQDHTKDPTLAEMTEAALQVLSRNPRGFYLFVEGGRIDHGHHDGKAYMALTEAIMFDNAIAKANELTSELDTLILVTADHSHVFSFGGYTLRGTSIFGLAPGKALDSKSYTSILYGNGPGYALGGGSRPDVNGSTSEEPSYRQQAAVPLASETHGGEDVAVFARGPQAHLVHGVQEETFVAHIMAFAGCVEPYTDCNLPAPA",,436000 counts,665,,,465000 counts
